Test results published in article doi:10.1101/2021.12.14.472590 (bioRxiv, 2021).

Target: human β-actin (recombinant G-actin) (human, UniProt P60709 1-375)
Assay: NMR titration

B1: ADAP1-381 (N-terminal intrinsically disordered fragment of ADAP) (domain or fragment)
chain: MAKYNTGGNPTEDVSVNSRPFRVTGPNSSSGIQARKNLFNNQGNASPPAGPSNVPKFGSPKPPVAVKPSSEEKPDKEPKPPFLKPTGAGQRFGTPASLTTRDPEAKVGFLKPVGPKPINLPKEDSKPTFPWPPGNKPSLHSVNQDHDLKPLGPKSGPTPPTSENEQKQAFPKLTGVKGKFMSASQDLEPKPLFPKPAFGQKPPLSTENSHEDESPMKNVSSSKGSPAPLGVRSKSGPLKPAREDSENKDHAGEISSLPFPGVVLKPAASRGGPGLSKNGEEKKEDRKIDAAKNTFQSKINQEELASGTPPARFPKAPSKLTVGGPWGQSQEKEKGDKNSATPKQKPLPPLFTLGPPPPKPNRPPNVDLTKFHKTSSGNSTS
- binding result: binds
